Target: TRPV1-CT44 (TRPV1 C-terminal residues 759–802) (rat) (UniProt O35433)
Experiment: other fluorescence titration

TRPV1-CT44 (TRPV1 C-terminal residues 759–802) (rat), sequence (O35433 759-802): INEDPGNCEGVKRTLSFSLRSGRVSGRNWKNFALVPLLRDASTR

“calmodulin (CaM), wild type (from UniProt P0DP23 1-149) (natural protein)” was tested, and the stoichiometry N was 1.

— publication PMC3483115
